Data as given in the Human Domainome abundance scans (Beltran et al. 2025).
± gives the uncertainty stated by the source.

B1: TOX high mobility group box family member 3, residues 256 to 323; numbered along this chain, O15405 (parent)
chain: QKPVSAYALFFRDTQAAIKGQNPNATFGEVSKIVASMWDSLGEEQKQVYKRKTEAAKKEYLKALAAYR

Variants of: B1
Assay: abundance fitness (aPCA) (normalised: wild type 0, dead -1); higher = more abundant; growth selection in yeast, the domain comes from the species named
Settings: Homo sapiens

Row | Variant | abundance fitness
1 | D39T | -0.292 ± 0.092
2 | D39Q | 0.003 ± 0.088
3 | A17N | -0.185 ± 0.16
4 | A17V | 0.017 ± 0.064
5 | A17P | -0.472 ± 0.1
6 | A17R | 0.083 ± 0.055
7 | A17Y | -0.087 ± 0.081
8 | A17Q | -0.004 ± 0.072
9 | A17K | 0.196 ± 0.085
10 | F11D | -0.746 ± 0.15
11 | F11N | -0.19 ± 0.13
12 | F11R | -0.139 ± 0.085
13 | F11C | -0.302 ± 0.13
14 | F11Q | -0.171 ± 0.14
15 | S5Q | -0.527 ± 0.28
16 | S5V | -0.693 ± 0.1
17 | S5W | -0.491 ± 0.14
18 | S5C | -0.074 ± 0.11
19 | S5A | -0.314 ± 0.066
20 | S5D | 0.101 ± 0.074
21 | S40R | -0.004 ± 0.05
22 | S40I | 0.435 ± 0.11
23 | S40V | -0.167 ± 0.058
24 | S40L | -0.258 ± 0.055

Row | Variant | abundance fitness
25 | S40G | 0.009 ± 0.052
26 | E44T | -0.072 ± 0.076
27 | E44G | -0.17 ± 0.06
28 | E44I | -0.613 ± 0.19
29 | E44K | 0.066 ± 0.099
30 | A6T | -0.6 ± 0.18
31 | A6Y | -0.34 ± 0.17
32 | A6C | -0.372 ± 0.17
33 | A6F | -0.661 ± 0.16
34 | A6L | -0.37 ± 0.086
35 | P3I | -0.228 ± 0.096
36 | P3L | -0.145 ± 0.045
37 | P3E | -0.199 ± 0.2
38 | P3R | -0.157 ± 0.053
39 | A66M | -0.097 ± 0.068
40 | A66R | 0.056 ± 0.05
41 | A66P | 0.182 ± 0.05
42 | A66K | -0.221 ± 0.19
43 | G20W | -0.455 ± 0.076
44 | G20H | 0.013 ± 0.13
45 | G20D | 0.192 ± 0.11
46 | M37V | -0.317 ± 0.064
47 | M37T | -0.036 ± 0.075
48 | M37C | -0.186 ± 0.084

Row | Variant | abundance fitness
49 | M37E | -0.104 ± 0.065
50 | M37W | -0.874 ± 0.12
51 | M37Y | -0.826 ± 0.32
52 | M37K | 0.037 ± 0.065
53 | M37G | -0.486 ± 0.067
54 | M37A | -0.063 ± 0.071
55 | Y67E | 0.138 ± 0.35
56 | Y67K | 0.244 ± 0.093
57 | Y67C | 0.208 ± 0.064
58 | Y67A | 0.263 ± 0.077
59 | Y67P | 0.352 ± 0.088
60 | A55P | -0.157 ± 0.051
61 | A55I | -0.148 ± 0.09
62 | A55Q | -0.001 ± 0.077
63 | A55C | -0.246 ± 0.095
64 | A55G | -0.022 ± 0.051
65 | A55S | -0.029 ± 0.041
66 | A55H | 0.015 ± 0.053
67 | A65T | 0.081 ± 0.093
68 | A65H | -0.081 ± 0.12
69 | A65N | 0.098 ± 0.16
70 | A65V | -0.049 ± 0.048
71 | R12A | -0.116 ± 0.078
72 | R12M | -0.052 ± 0.063

Row | Variant | abundance fitness
73 | R12D | -0.526 ± 0.23
74 | R12W | -0.587 ± 0.12
75 | R12P | -1 ± 0.23
76 | K19S | -0.127 ± 0.06
77 | K19P | -1.03 ± 0.18
78 | K19I | -0.179 ± 0.058
79 | K19D | -1.13 ± 0.33
80 | K19R | -0.102 ± 0.06
81 | K19T | -0.221 ± 0.063
82 | K19E | -0.256 ± 0.21
83 | K19N | -0.557 ± 0.12
84 | K58Q | 0.039 ± 0.072
85 | K58E | 0.044 ± 0.097
86 | K58P | -0.113 ± 0.064
87 | K58G | -0.068 ± 0.051
88 | K58T | -0.079 ± 0.059
89 | K58H | -0.242 ± 0.15
90 | K58L | -0.135 ± 0.057
91 | Q1Y | 0.123 ± 0.073
92 | Q1T | 0.012 ± 0.094
93 | Q1K | 0.247 ± 0.15
94 | Q1G | 0.107 ± 0.088
95 | Q1I | -0.035 ± 0.11
96 | Q1S | -0.386 ± 0.16

Row | Variant | abundance fitness
97 | Q1R | -0.087 ± 0.06
98 | Q1W | -0.282 ± 0.11
99 | N24M | -0.095 ± 0.058
100 | N24G | 0.096 ± 0.056
101 | N24H | 0.028 ± 0.097
102 | N24A | -0.183 ± 0.066
103 | N24F | -0.154 ± 0.074
104 | N24R | -0.063 ± 0.053
105 | N24Q | -0.353 ± 0.088
106 | N24T | 0.026 ± 0.078
107 | I33H | -0.324 ± 0.1
108 | I33N | -0.329 ± 0.094
109 | I33P | -1.01 ± 0.12
110 | I33W | -0.507 ± 0.1
111 | I33S | -0.267 ± 0.05
112 | I33T | 0.021 ± 0.061
113 | I33L | -0.016 ± 0.047
114 | K46E | -1.05 ± 0.19
115 | K46I | -0.398 ± 0.1
116 | K46L | -0.537 ± 0.058
117 | K46S | -0.811 ± 0.12
118 | K46F | -0.913 ± 0.19
119 | K46T | -0.395 ± 0.11
120 | R51S | -0.02 ± 0.044

Row | Variant | abundance fitness
121 | R51W | -0.079 ± 0.057
122 | E29R | -0.558 ± 0.068
123 | E29F | -0.431 ± 0.14
124 | E29H | -0.501 ± 0.082
125 | E29L | -0.832 ± 0.099
126 | E29M | -0.564 ± 0.12
127 | E29V | -0.618 ± 0.099
128 | E29T | -0.495 ± 0.077
129 | Y7N | 0.007 ± 0.16
130 | Y7L | -0.547 ± 0.075
131 | Q45K | 0.037 ± 0.088
132 | Q45M | -0.431 ± 0.098
133 | Q45R | -0.059 ± 0.045
134 | Q45H | 0.098 ± 0.14
135 | Q45I | -0.479 ± 0.1
136 | Q45F | -0.339 ± 0.091
137 | Q45S | -0.129 ± 0.061
138 | Q45N | -0.232 ± 0.16
139 | Q45E | 0.092 ± 0.13
140 | K57P | -0.165 ± 0.065
141 | K57T | -0.093 ± 0.063
142 | K57W | -0.381 ± 0.11
143 | A56E | -0.007 ± 0.077
144 | A56G | -0.017 ± 0.057

Row | Variant | abundance fitness
145 | A56Q | -0.017 ± 0.07
146 | A56I | -0.167 ± 0.21
147 | E43P | 0.058 ± 0.056
148 | E43V | -0.12 ± 0.059
149 | E43N | -0.374 ± 0.17
150 | E43I | -0.339 ± 0.18
151 | E43F | -0.237 ± 0.079
152 | L64S | 0.128 ± 0.057
153 | L64M | -0.031 ± 0.15
154 | L64H | 0.285 ± 0.085
155 | L64Y | -0.172 ± 0.075
156 | L64C | 0.153 ± 0.066
157 | L64K | 0.205 ± 0.06
158 | Y60R | -0.129 ± 0.069
159 | Y60G | -0.101 ± 0.091
160 | Y60I | -0.556 ± 0.2
161 | Y60V | -0.073 ± 0.05
162 | Y60P | -0.052 ± 0.076
163 | F10W | -0.957 ± 0.2
164 | F10S | -0.267 ± 0.15
165 | F10D | -0.752 ± 0.23
166 | F10L | -0.744 ± 0.1
167 | F10P | -0.572 ± 0.28
